Data: patent US12097265B2, “Cytotoxic particles for targeting P2X7 receptor” (BIOSCEPTRE (AUST) PTY LTD, priority 2016, dated 2024)

How the values were obtained:
4T1 murine breast tumour [1] = test: Efficacy of gemcitabine liposome nanoparticles in the 4T1 murine breast tumour model; type: in vivo, mice; conditions: 0.2 mg gemcitabine, intravenously 3 times a week; versus HEL4-coated nanoparticles containing gemcitabine; P=0.0456
Description: This study aimed to determine the efficacy of P2X7-binding domain-coated nanoparticles (i.e., “BIL03s-coated”) and HEL4-coated nanoparticles to deliver the cytotoxic agent gemcitabine to tumours in the 4T1 murine breast tumour model.
Nanoparticles were administered intravenously, 3 times a week. Nanoparticles contained either 0.2 mg gemcitabine or PBS buffer (control).
Tumour volume was measured over the study period (see FIG. 10). Mice were terminated when estimated tumour volume exceeded 1000 mm^3.

4T1 murine breast tumour [2] = test: Dosing regimen investigation: coated nanoparticles versus free gemcitabine, tumour growth; type: in vivo, mice
[3] = test system: 4T1-luc2 murine breast cancer cells; test: Biodistribution imaging of fluorescently labelled nanoparticles in 4T1-luc2 tumour bearing mice; type: in vivo
Description: The near-infrared (NIR) lipophilic fluorescent dye DiR (ThermoFisher) was incorporated into the lipid bilayer of naked nanoparticles, nanoparticles coated with HEL4 (isotype) and nanoparticles coated with variable domains for binding to anti-P2X7R (P2X7-binding domain-coated nanoparticles, or “BIL03s-coated”). Female Balb/c mice were inoculated orthotopically (4th mammary fat pad) with 4T1-luc2 murine breast cancer cells. A 50 μL dose of nanoparticles was injected intravenously at study day 0 and near-infrared (NIR) imaging was performed at 6, 12, 24, 48 and 96 […]. At termination, excised liver, spleen and tumour NIR imaging was performed and bioluminescence imaging was performed on tumour tissues.

B1: P2X7-binding domain-coated nanoparticles containing gemcitabine: Liposome of DOPC, oleyl-gemcitabine carbamate conjugate and Maleimido-Succinyl-PEG4000-Oleate, conjugated to an anti-P2X7R single … (conjugate)
VH: EVQLLESGGGLVQPGGSLRLSCAASGFTFRNHDMGWVRQAPGKGLEWVSAISGSGGSTYYANSVKGRFTISRDNSKNTLYLQMNSLRAEDTAVYYCAEPKPMDTEFDYRSPGTLVTVSS
- survival (4T1 murine breast tumour [1]): prolonged survival
- tumour suppression (tumour volume) (4T1 murine breast tumour [1]): greater tumour suppression
- efficacy for inhibiting tumour growth (4T1 murine breast tumour [2]; equivalent to 0.3 mg gemcitabine, intravenously twice per week (FIG. 11), versus 0.3 mg free gemcitabine): comparable
- release of cytotoxic agent (4T1 murine breast tumour [2]; general statement): sustained release
- toxicity (4T1 murine breast tumour [2]; general statement, versus existing cancer treatments): lower toxicity
- accumulation in the excised tumour ([3]; ex vivo bioluminescence imaging at 96 hr, FIG. 9, versus naked nanoparticles): higher accumulation in the excised tumour
- accumulation in tumours ([3]; whole animal NIR imaging and ex vivo bioluminescence, 50 μL intravenous on day 0, versus naked or HEL4-coated control nanoparticles): greater accumulation in tumours
- retention in the tumour ([3]; whole animal NIR imaging, FIG. 7, versus non antibody-conjugated particles): retained in the tumour much longer
